{
  "source": "the RNAGym collection of RNA variant scans (doi:10.7554/elife.90254)",
  "parents": {"B1": {"name": "LINE1-mini (parent)", "chain": "GGCAGAGCUCAACACAGCGUGGCAAAGUGGCUGUGGCUAGACUGCC"}},
  "data": [
    {"variants_of": "B1", "experiment": "self-cleavage, relative activity (ratio to wild type); higher = more cleavage; in vitro, sequencing; the parent is a self-cleaving ribozyme", "values": [
      {"variant": "G30U C45A", "self-cleavage": 0.49},
      {"variant": "G1C G2U", "self-cleavage": 0.08},
      {"variant": "A25U U34C", "self-cleavage": 0.13},
      {"variant": "G35A C46U", "self-cleavage": 0.1},
      {"variant": "U9C U34C", "self-cleavage": 0.04},
      {"variant": "A12U U20C", "self-cleavage": 0.25},
      {"variant": "U32A G40C", "self-cleavage": 0.08},
      {"variant": "C18U U32C", "self-cleavage": 0.16},
      {"variant": "G29A G30C", "self-cleavage": 1.52},
      {"variant": "G22A A26G", "self-cleavage": 1.31},
      {"variant": "G17U A26G", "self-cleavage": 0.1},
      {"variant": "G19C U28C", "self-cleavage": 0.6},
      {"variant": "G36U C37G", "self-cleavage": 0.05},
      {"variant": "G2A G21U", "self-cleavage": 0.89},
      {"variant": "A16C G35C", "self-cleavage": 0.06},
      {"variant": "A14U U32C", "self-cleavage": 0.15},
      {"variant": "C23G U32A", "self-cleavage": 0.07},
      {"variant": "A24U G40C", "self-cleavage": 0.11},
      {"variant": "G22U U28C", "self-cleavage": 0.42},
      {"variant": "G27C A41G", "self-cleavage": 0.25},
      {"variant": "G27U U32A", "self-cleavage": 0.07},
      {"variant": "G5A U38A", "self-cleavage": 0.16},
      {"variant": "A25C G40A", "self-cleavage": 0.1},
      {"variant": "G5C A26U", "self-cleavage": 0.06},
      {"variant": "A11G G17C", "self-cleavage": 0.04},
      {"variant": "G5U C45U", "self-cleavage": 0.08},
      {"variant": "G33A U38G", "self-cleavage": 0.03},
      {"variant": "G27U U32G", "self-cleavage": 0.16},
      {"variant": "A6U U32A", "self-cleavage": 0.15},
      {"variant": "G17C C18G", "self-cleavage": 0.07},
      {"variant": "C8U G22U", "self-cleavage": 0.16},
      {"variant": "C3G A39U", "self-cleavage": 0.27},
      {"variant": "A12C G29A", "self-cleavage": 0.01},
      {"variant": "G2A C8A", "self-cleavage": 0.61},
      {"variant": "A11G U28A", "self-cleavage": 0.03},
      {"variant": "G33A G44C", "self-cleavage": 0.07},
      {"variant": "A26C A41G", "self-cleavage": 0.23},
      {"variant": "U9C G36U", "self-cleavage": 0.03},
      {"variant": "U9C G27C", "self-cleavage": 0.03},
      {"variant": "U9A U20A", "self-cleavage": 0.16},
      {"variant": "G5U G30A", "self-cleavage": 0.18},
      {"variant": "A6C G40C", "self-cleavage": 0.1},
      {"variant": "U9C C37U", "self-cleavage": 0.04},
      {"variant": "G5U C23G", "self-cleavage": 0.12},
      {"variant": "U34A A41G", "self-cleavage": 0.05},
      {"variant": "C13U U32A", "self-cleavage": 0.11},
      {"variant": "A16G U20A", "self-cleavage": 0.16},
      {"variant": "A25G U28C", "self-cleavage": 0.84},
      {"variant": "A11G G35U", "self-cleavage": 0.03},
      {"variant": "C8U C18U", "self-cleavage": 0.14},
      {"variant": "A14C U38G", "self-cleavage": 0.02},
      {"variant": "G5A G19A", "self-cleavage": 0.29},
      {"variant": "C3U C37A", "self-cleavage": 0.12},
      {"variant": "A12C A41G", "self-cleavage": 0.03},
      {"variant": "C8G A41C", "self-cleavage": 0.14},
      {"variant": "A4U C31A", "self-cleavage": 0.05},
      {"variant": "A14C C31A", "self-cleavage": 0.07},
      {"variant": "A4U A14C", "self-cleavage": 0.12},
      {"variant": "G7A U32G", "self-cleavage": 0.11},
      {"variant": "U20G C46A", "self-cleavage": 0.78},
      {"variant": "A14G G17C", "self-cleavage": 0.09},
      {"variant": "G1U C31A", "self-cleavage": 0.07},
      {"variant": "C15A U34G", "self-cleavage": 0.05},
      {"variant": "G1U A11C", "self-cleavage": 0.03},
      {"variant": "G29U U43C", "self-cleavage": 0.08},
      {"variant": "G17A G40A", "self-cleavage": 0.06},
      {"variant": "G5A G30A", "self-cleavage": 0.22},
      {"variant": "C10G A39U", "self-cleavage": 0.16},
      {"variant": "A16G C37G", "self-cleavage": 0.02},
      {"variant": "A4U C45U", "self-cleavage": 0.16},
      {"variant": "A16C G22U", "self-cleavage": 0.1},
      {"variant": "G1U A24G", "self-cleavage": 0.25},
      {"variant": "C18G G40A", "self-cleavage": 0.05},
      {"variant": "C31U A39C", "self-cleavage": 0.12},
      {"variant": "A26U G33C", "self-cleavage": 0.06},
      {"variant": "U20C G30A", "self-cleavage": 0.45},
      {"variant": "C31U U43A", "self-cleavage": 0.06},
      {"variant": "A4C A25G", "self-cleavage": 0.12},
      {"variant": "G21U A26U", "self-cleavage": 1.93},
      {"variant": "G1U A16G", "self-cleavage": 0.22},
      {"variant": "G7U A26U", "self-cleavage": 0.34},
      {"variant": "G21C C46G", "self-cleavage": 0.51},
      {"variant": "G1U U20G", "self-cleavage": 0.16},
      {"variant": "A6C U9A", "self-cleavage": 0.18},
      {"variant": "C15G G19U", "self-cleavage": 0.03},
      {"variant": "G19C G27A", "self-cleavage": 0.54},
      {"variant": "U34C G44C", "self-cleavage": 0.11},
      {"variant": "U28G C31A", "self-cleavage": 0.22},
      {"variant": "A6C U34G", "self-cleavage": 0.25},
      {"variant": "A11U U20A", "self-cleavage": 0.07},
      {"variant": "A16G C18U", "self-cleavage": 0.33},
      {"variant": "A4G U32A", "self-cleavage": 0.06},
      {"variant": "G17C G29C", "self-cleavage": 0.34},
      {"variant": "G1C U20G", "self-cleavage": 0.05},
      {"variant": "G36C G44C", "self-cleavage": 0.11},
      {"variant": "C23A C46G", "self-cleavage": 1.53},
      {"variant": "G22U G35C", "self-cleavage": 0.22},
      {"variant": "C10G A41U", "self-cleavage": 0.05},
      {"variant": "A39C A41G", "self-cleavage": 0.1},
      {"variant": "G1U C3U", "self-cleavage": 0.27},
      {"variant": "C15A C45A", "self-cleavage": 0.08},
      {"variant": "A16C C23U", "self-cleavage": 0.45},
      {"variant": "G7A A41C", "self-cleavage": 0.21},
      {"variant": "C8A G35A", "self-cleavage": 0.42},
      {"variant": "G2A A26G", "self-cleavage": 0.6},
      {"variant": "C3A A6G", "self-cleavage": 0.2},
      {"variant": "G2A G30U", "self-cleavage": 1.4},
      {"variant": "A24U C31G", "self-cleavage": 0.08},
      {"variant": "G5C G35U", "self-cleavage": 0.07},
      {"variant": "A6U A41U", "self-cleavage": 0.09},
      {"variant": "G33A G44U", "self-cleavage": 0.03},
      {"variant": "A24C A25U", "self-cleavage": 1.01},
      {"variant": "G1C C10G", "self-cleavage": 0.03},
      {"variant": "G1A G40A", "self-cleavage": 0.11},
      {"variant": "G7C C37G", "self-cleavage": 0.03},
      {"variant": "G5A A25G", "self-cleavage": 0.14},
      {"variant": "A12G C31A", "self-cleavage": 0.16},
      {"variant": "C13G C46U", "self-cleavage": 0.46},
      {"variant": "A16U C45A", "self-cleavage": 0.1},
      {"variant": "G19U U34G", "self-cleavage": 0.16},
      {"variant": "G21U U38G", "self-cleavage": 0.04},
      {"variant": "A14C G27C", "self-cleavage": 0.07},
      {"variant": "G2C C15A", "self-cleavage": 0.06},
      {"variant": "U9C C10A", "self-cleavage": 0.03},
      {"variant": "C18G G33C", "self-cleavage": 0.03},
      {"variant": "C8A A26U", "self-cleavage": 0.3},
      {"variant": "G27C C42A", "self-cleavage": 0.07},
      {"variant": "G21C U32A", "self-cleavage": 0.13},
      {"variant": "A12G A16U", "self-cleavage": 0.05},
      {"variant": "C23A", "self-cleavage": 1.01},
      {"variant": "U9C C45U", "self-cleavage": 0.03},
      {"variant": "G7C C10U", "self-cleavage": 0.04},
      {"variant": "A14G A41G", "self-cleavage": 0.16},
      {"variant": "A16U G44A", "self-cleavage": 0.05},
      {"variant": "U9G C15G", "self-cleavage": 0.43},
      {"variant": "A14C G44A", "self-cleavage": 0.07},
      {"variant": "C23U G30U", "self-cleavage": 1.38},
      {"variant": "U28C G35U", "self-cleavage": 0.09},
      {"variant": "G33U G40A", "self-cleavage": 0.03},
      {"variant": "A14G G21C", "self-cleavage": 0.24},
      {"variant": "G29C C31A", "self-cleavage": 1.34},
      {"variant": "C13A A41G", "self-cleavage": 0.12},
      {"variant": "G1C A11U", "self-cleavage": 0.03},
      {"variant": "G21C A24U", "self-cleavage": 0.63},
      {"variant": "G2U U38C", "self-cleavage": 0.05},
      {"variant": "G27U U34G", "self-cleavage": 0.26},
      {"variant": "A12C G35C", "self-cleavage": 0.03},
      {"variant": "G17U A41C", "self-cleavage": 0.1},
      {"variant": "C15G G35C", "self-cleavage": 0.13},
      {"variant": "G2A C46A", "self-cleavage": 1.23},
      {"variant": "A24G A26G", "self-cleavage": 0.5},
      {"variant": "C18G G36A", "self-cleavage": 0.1},
      {"variant": "C37G A39U", "self-cleavage": 0.08},
      {"variant": "U38C C46A", "self-cleavage": 1.27},
      {"variant": "U32G U43A", "self-cleavage": 0.04},
      {"variant": "C23G G35A", "self-cleavage": 0.14},
      {"variant": "U34C A39U", "self-cleavage": 0.07},
      {"variant": "U20C C45G", "self-cleavage": 0.3},
      {"variant": "U32C C46G", "self-cleavage": 0.1},
      {"variant": "G21U G35U", "self-cleavage": 0.22},
      {"variant": "C10G G40U", "self-cleavage": 0.02},
      {"variant": "A12C G19A", "self-cleavage": 0.02},
      {"variant": "C10U", "self-cleavage": 0.34},
      {"variant": "G21U G33C", "self-cleavage": 0.08},
      {"variant": "C13U G44C", "self-cleavage": 0.06},
      {"variant": "A16C U38C", "self-cleavage": 0.1},
      {"variant": "C3U G35C", "self-cleavage": 0.11}
    ]}
  ]
}
